# Experimental data: article PMC3042044
# The star is where a group is joined. CSCF3 = thiotrifluoroacetyl on lysine, FC(F)(F)C(=S)*; fluorescein = fluorescein label at the N-terminus
# How the values were obtained:
# Hst2 (yeast) = Hst2 (yeast) (UniProt P53686); assay: ITC
# SIRT3 (human) [1] = assay: ITC
# SIRT3 (human) [2] = assay: fluorescence polarisation
# Sequence of UniProt P53686 (P53686 whole entry): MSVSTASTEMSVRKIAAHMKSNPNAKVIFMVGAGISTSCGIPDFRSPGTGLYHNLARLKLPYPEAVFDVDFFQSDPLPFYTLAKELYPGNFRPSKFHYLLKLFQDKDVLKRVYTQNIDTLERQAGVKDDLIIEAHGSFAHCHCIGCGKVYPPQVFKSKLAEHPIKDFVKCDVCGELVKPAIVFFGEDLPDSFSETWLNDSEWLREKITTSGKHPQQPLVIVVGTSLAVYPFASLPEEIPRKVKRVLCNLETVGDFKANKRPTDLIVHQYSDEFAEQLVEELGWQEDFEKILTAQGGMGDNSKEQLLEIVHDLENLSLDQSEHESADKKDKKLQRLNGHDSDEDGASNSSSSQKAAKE
Kd (Hst2 (yeast)),Kd (SIRT3 (human) [1]),Kd (SIRT3 (human) [2]),Molecule
950 nM,–,–,Histone H3 peptide with pentafluoropropionyl-lysine at Lys-14
–,900 nM,1700 nM,fluorescein-LPKTRSGK(CSCF3)VMRR-OH
